# Biological target: human Adenovirus capsid
# Assay: SPR, peptide on adenovirus capsid (FIGS. 13A-13B)
row,Binder,"list of priority (rank by SPR binding, high binders listed first)"
1,KKKKKKKKKGLEAPFLYLYALVYFLQSINFV [AP3A_GLEAP SARS-CoV2 peptide with 9K poly-lysine tail],2 rank
2,KKKKKKKKKKLIFLWLLWPVTLACFVLAAV [VME1_KLIFL SARS-CoV2 peptide with 9K poly-lysine tail],4 rank
3,KKKKKKALALLLLDRLNQLESKMSGK [NCAP_ALALL SARS-CoV2 peptide with 6K poly-lysine tail],9 rank
4,KKKKKKKVTLVFLFVAAIFYLITPVHVMSK [R1AB_KVTLV SARS-CoV2 peptide with 6K poly-lysine tail],3 rank
5,KKKKKKAQFAPSASAFFGMSRIGMEV [NCAP_AQFAP SARS-CoV2 peptide with 6K poly-lysine tail],7 rank
6,KKKKKKKKKGLVAEWFLAYILFTRFFYVL [R1AB_GLVAE SARS-CoV2 peptide with 9K poly-lysine tail],1 rank
7,KKKKKKLPKEITVATSRTLSYYKLGA [VME1_LPKEI SARS-CoV2 peptide with 6K poly-lysine tail],6 rank

# — patent US20230321209A1
